T1: V. carteri f. nagariensis LOX (D8U0N8) (Volvox carteri, UniProt D8U0N8)
T1 construct: gene VOLCADRAFT_105417; synthesized gene in pET-28a(+), expressed in E. coli ER2566
T1 sequence (D8U0N8 1-1056): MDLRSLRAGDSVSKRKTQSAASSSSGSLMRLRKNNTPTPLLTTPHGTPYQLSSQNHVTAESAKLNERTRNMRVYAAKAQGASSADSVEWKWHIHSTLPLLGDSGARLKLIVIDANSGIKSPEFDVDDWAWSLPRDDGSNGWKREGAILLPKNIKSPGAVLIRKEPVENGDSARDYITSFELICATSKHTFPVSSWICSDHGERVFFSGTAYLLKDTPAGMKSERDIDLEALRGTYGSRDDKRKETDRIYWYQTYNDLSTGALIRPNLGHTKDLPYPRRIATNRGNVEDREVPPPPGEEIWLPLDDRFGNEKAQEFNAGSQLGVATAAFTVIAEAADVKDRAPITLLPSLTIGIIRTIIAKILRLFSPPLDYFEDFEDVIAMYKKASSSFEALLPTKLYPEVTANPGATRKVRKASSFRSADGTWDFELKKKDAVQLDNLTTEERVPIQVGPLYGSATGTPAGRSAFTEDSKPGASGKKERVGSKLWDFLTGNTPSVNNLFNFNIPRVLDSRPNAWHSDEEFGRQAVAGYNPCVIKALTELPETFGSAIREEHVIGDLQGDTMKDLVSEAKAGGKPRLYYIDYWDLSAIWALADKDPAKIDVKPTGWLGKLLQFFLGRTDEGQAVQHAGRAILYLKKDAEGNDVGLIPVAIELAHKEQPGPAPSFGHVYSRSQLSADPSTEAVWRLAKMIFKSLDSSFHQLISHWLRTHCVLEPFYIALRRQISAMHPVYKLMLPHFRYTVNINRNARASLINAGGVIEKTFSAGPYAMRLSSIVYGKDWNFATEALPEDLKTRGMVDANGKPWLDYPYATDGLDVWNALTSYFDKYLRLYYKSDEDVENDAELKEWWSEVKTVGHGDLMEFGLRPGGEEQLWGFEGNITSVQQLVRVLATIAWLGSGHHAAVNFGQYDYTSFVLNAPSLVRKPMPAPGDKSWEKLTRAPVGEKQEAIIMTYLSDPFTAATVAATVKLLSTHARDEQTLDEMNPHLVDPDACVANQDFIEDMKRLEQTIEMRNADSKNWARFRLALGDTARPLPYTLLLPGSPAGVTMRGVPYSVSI

B1: C. incerta 15S-LOX (Chlamydomonas incerta) (protein)
chain: MNGAHSPGEVAVWKASIESSAPLLGDTGTRLEIVVIDLDTDRRSEPTNVDSWRPPVLESGPGSSTARSGASSGSGTSGWKREGRLPLPADFLTPGAVLVRKSRTVDGNASVDFIGTIKLVSATKVFHFPVHSWVSSDHDWRVFFEGTAYLPAHTPPSLRDERQRELQELQGTPATRTLERRPADRIYWYQTYDDLSSAGEGGYRPALGATARRPYPRRIATNRGAADGHPDREKPPVKAGDKPWLPYDEQFSFDKAADFNGDTLTAALPAAFSFIAEAGDQRHLTWLNLLPTAVHGLVRNVLRAVLGYAEPPAANFDSFEDVLAFFGEDAASRGSSMAPTQLYPAGQEAAMKGFGAPHDPRNPAPFKTASGAWDFRLNSAAAAAINDQIAADRVGPVPDSATGGPSSGAATAATAFAATAAAATAAGAPAAAITAPPQPGVPNLIGLLGSAVWRRLTNDPSHDINDLLYFPVPRVVDGRPDAWYTDEEYGRQALAGYHPTAITALTQLPEAFGSAIRAHHVEAELQGSSLEALVAAAAGGAKPRLYLIDHWDLSAYWQEAEEEAEAARKAGRKPPSAVQHAGRCLFYLRKDEVTGEDTALVPIAIELAHPGTHKASNGTSAPLPPTAGEVYARSELVASPQTLAVWRLAKAVFRSLDTSIHQLVAHFNRTHAALEPFLIAMRRQMSVMHPITKLMLPHFRYTLNINRNARASLINAGGIIEKTFSAGPFAMRLASAVYGKSWTFAGQALPEDLRERGMLDAAGRPWLDYPFAIDGLDTWAALTAYFDQYVSLYYDGDGAVLEDGELQAWWDEVKTEGHPDIVAFGLKSEQQVWGFTGPIAKRSDLVHVLATIAWLASGHHAAVNFGQYDFTGLILNASSLVRRPMPAPKEPAYKELTGAALGPPQERVFMTYLADPFSAVQVLATVKLLSAHARDEHTLDEANDYIVDPAAREANRAFIAAVKQLESAIETRNADPANWARYGLAAGTAAPLPYTLLMASSPPGVTMRGVPYSVSI
notes: synthesized gene in pET-28a(+), E. coli ER2566, His-Trap purified, His6 tag kept; 1016 residues plus six His, 109,248 (kDa [sic]), dimer 219 kDa

Legend:
[1] = target: T1, V. carteri f. nagariensis LOX (D8U0N8); assay: product analysis after reaction with ARA; format: cell-based; details: enzyme preparation not stated; products HETE and DiHETE
[2] = substrate: CC/C=C\C/C=C\C/C=C\C/C=C\C/C=C\CCCC(=O)O; assay: purified protein; format: biochemical, Chlamydomonas incerta; details: 50 mM HEPPS pH 7.5, 35°C, 5 min, substrate 0.05-0.2 mM, product 15S-HEPA (first oxygenation)
[3] = substrate: CC/C=C\C/C=C\C/C=C\C/C=C\C/C=C\C/C=C\CCC(=O)O; assay: purified protein; format: biochemical, Chlamydomonas incerta; details: 50 mM HEPPS pH 7.5, 35°C, 5 min, substrate 0.05-0.2 mM, product 17S-HDHA (first oxygenation)
[4] = substrate: CCCCC/C=C\C/C=C\C/C=C\C/C=C\CCCC(=O)O; assay: purified protein; format: biochemical, Chlamydomonas incerta; details: 50 mM HEPPS pH 7.5, 35°C, 5 min, substrate 0.05-0.2 mM, product 15S-HETE (first oxygenation)

| Molecule | product analysis after reaction with ARA [1] | Km [2] [µM] | kcat [2] [s⁻¹] | kcat/Km [2] [M⁻¹ s⁻¹] | Km [3] [µM] | kcat [3] [s⁻¹] | kcat/Km [3] [M⁻¹ s⁻¹] | Km [4] [µM] | kcat [4] [s⁻¹] | kcat/Km [4] [M⁻¹ s⁻¹] |
| --- | --- | --- | --- | --- | --- | --- | --- | --- | --- | --- |
| CCCCC/C=C\C/C=C\C/C=C\C/C=C\CCCC(=O)O [ARA] | only those from V. carteri f. nagariensis (D8U0N8) | – | – | – | – | – | – | – | – | – |
| B1 | – | 191 ± 0.1 | 143 ± 0.2 | 750000 ± 100000 | 98.5 ± 0.1 | 121 ± 0.2 | 980000 ± 100000 | 101 ± 0.02 | 149 ± 0.2 | 1.47e+06 ± 100000 |

Source: paper PMC12152530, “Efficient One‐Step Production of 7S,17S‐ and 10S,17S‐Dihydroxydocosahexaenoic Acids by a Double‐Oxygenating 15S‐Lipoxygenase From Chlamydomonas incerta” (Biotechnology and Bioengineering, 2025)
